Source: US20130331690A1, “VASCULAR IMAGING AGENTS” (GE HEALTHCARE AS, priority 2010, published 2013)

Assays:
[1] = of the fluorescence efficiency of fluorescein; cited from earlier work
MatBIII tumour model = assay: In vivo fluorescence imaging in the rat MatBIII tumour model; conditions: fluorescence image 1 hour after iv injection, FIG. 2
Description: (§1) In vivo studies were carried out with female Fischer 344 rats or severe combined immunodeficient (SCID) mice, each with an age between 4 and 8 weeks. Animals were housed with non-fluorescent food (Harlan Labs, cat. #TD.97184) and water ad libitum and a standard 12 hour day-night lighting cycle. 1×10^6 cells (100 μL) were injected, using a 27 gauge needle, directly orthotopically into the mammary fat pad of the animal. After allowing 7 days for MatBIII tumor growth (˜1 cm in diameter), animals were injected with test agent and imaged.
Compound 1 was studied in the MatBIII model described in Example 3. The dose was either 125 or 250 nmol dye/kg body weight. The fluorescence imaging system was comprised of a 12 bit cooled CCD camera (Hamamatsu ORCA), and with a 735 laser source providing the excitation light. The fluorescence signal was filtered with a band pass emission filter set (810 nm centre frequency, 90 nm bandwidth). 50 ms exposure time was used with 2×2 binning.
For immobilisation during the optical imaging procedure, the animals were anaesthetized in a coaxial open mask to surgical level anaesthesia with Isoflurane (typically 2-3%) with oxygen as the carrier gas. During injection and intermediate time point imaging a lighter anaesthesia level was used. The animals were imaged from above, lying on their backs. […]

[2] = Blood clearance vs time, bi-phasic exponential decay curve fit; format: in vivo, rat; conditions: rats
[3] = Optical biodistribution (ADME profile) in MatBIII orthotopic tumor model; format: in vivo, rat; conditions: for Biodistribution, Bladder / Biodistribution, Blood / Biodistribution, Eye / Biodistribution, Kidney / Biodistribution, Liver / Biodistribution, Skin / Biodistribution, Spleen / Biodistribution, Tumor: MatBIII tumor-bearing rats, 125 nmol/kg
Description: as §1
The ADME profile of Compound 1 was studied by performing optical biodistribution studies in the MatB III in vivo orthotopic tumor model. Thus, a dose of 125 nmol/kg (volume ˜250-300 μL) was used for the study with an equal volume of PBS used as a negative control. For naïve animals, each tissue type was split into four tubes to ensure sufficient volume for standard preparation. Tissues included blood, bladder/urine, liver, kidney, spleen, eyes, fat, muscle, tumor, and skin collected from the contralateral side from tumor. Using the supernatant from naïve samples (pooled by tissue type), standards were made by adding agent at concentrations of 75 μM, 37.5 μM, 3.75 μM, 0.375 μM and 0 μM, dilutions made with PBS. This yielded a final concentration of 20% injected dose (ID), 10%, 1%, […] and 0. To determine the amount of dye contained in each tissue type, 90 μL of sample or standard was read on a spectrophotometer at settings of 710 excitation/805 Emission.
Samples were adjusted for weight, but there was some sample-to-sample variation.

CC1(C)C(/C=C/C=C/C=C/C=C2\N(CCCCS(=O)(=O)O)c3ccc4ccccc4c3C2(C)C)=[N+](CCCCS(=O)(=O)[O-])c2ccc3ccccc3c21 [ICG, indocyanine green]
Fluorescence efficiency relative to fluorescein [1]: 4%

Bis-Cy7 PEG-31k Conjugate [Compound 1]
Image contrast of blood vessels and blood-rich tumour (MatBIII tumour model): positive image contrast
Blood half-life t1/2α [2]: 4.6 min
Blood half-life t1/2β [2]: 4.33 h
Retention of the agent in all of the collected tissues ([3]; 48 h post injection): < 1 % ID/g
Biodistribution, Bladder ([3]; 2 min): 0.00 % ID/g
Biodistribution, Blood ([3]; 2 min): 6.56 % ID/g
Biodistribution, Eye ([3]; 2 min): 1.93 % ID/g
Biodistribution, Kidney ([3]; 2 min): 0.12 % ID/g
Biodistribution, Liver ([3]; 2 min): 0.24 % ID/g
Biodistribution, Skin ([3]; 2 min): 0.00 % ID/g
Biodistribution, Spleen ([3]; 2 min): 0.64 % ID/g
Biodistribution, Tumor ([3]; 2 min): 0.00 % ID/g
Biodistribution, Bladder ([3]; 5 min): 0.23 % ID/g
Biodistribution, Blood ([3]; 5 min): 5.65 % ID/g
Biodistribution, Eye ([3]; 5 min): 0.14 % ID/g
Biodistribution, Kidney ([3]; 5 min): 1.35 % ID/g
Biodistribution, Liver ([3]; 5 min): 0.46 % ID/g
Biodistribution, Skin ([3]; 5 min): 0.56 % ID/g
Biodistribution, Spleen ([3]; 5 min): 0.64 % ID/g
Biodistribution, Tumor ([3]; 5 min): 0.53 % ID/g
Biodistribution, Bladder ([3]; 10 min): 1.24 % ID/g
Biodistribution, Blood ([3]; 10 min): 4.26 % ID/g
Biodistribution, Eye ([3]; 10 min): 1.70 % ID/g
Biodistribution, Kidney ([3]; 10 min): 0.41 % ID/g
Biodistribution, Liver ([3]; 10 min): 0.03 % ID/g
Biodistribution, Skin ([3]; 10 min): 0.00 % ID/g
Biodistribution, Spleen ([3]; 10 min): 1.00 % ID/g
Biodistribution, Tumor ([3]; 10 min): 0.00 % ID/g
Biodistribution, Bladder ([3]; 60 min): 0.86 % ID/g
Biodistribution, Blood ([3]; 60 min): 3.05 % ID/g
Biodistribution, Eye ([3]; 60 min): 0.33 % ID/g
Biodistribution, Kidney ([3]; 60 min): 0.51 % ID/g
Biodistribution, Liver ([3]; 60 min): 1.02 % ID/g
Biodistribution, Skin ([3]; 60 min): 0.05 % ID/g
Biodistribution, Spleen ([3]; 60 min): 0.28 % ID/g
Biodistribution, Tumor ([3]; 60 min): 0.00 % ID/g
Biodistribution, Bladder ([3]; 180 min): 0.00 % ID/g
Biodistribution, Blood ([3]; 180 min): 2.19 % ID/g
Biodistribution, Eye ([3]; 180 min): 0.12 % ID/g
Biodistribution, Kidney ([3]; 180 min): 0.63 % ID/g
Biodistribution, Liver ([3]; 180 min): 2.04 % ID/g
Biodistribution, Skin ([3]; 180 min): 0.06 % ID/g
Biodistribution, Spleen ([3]; 180 min): 0.32 % ID/g
Biodistribution, Tumor ([3]; 180 min): 0.05 % ID/g
Biodistribution, Bladder ([3]; 2880 min): 0.00 % ID/g
Biodistribution, Blood ([3]; 2880 min): 0.02 % ID/g
Biodistribution, Eye ([3]; 2880 min): 0.44 % ID/g
Biodistribution, Kidney ([3]; 2880 min): 0.00 % ID/g
Biodistribution, Liver ([3]; 2880 min): 0.23 % ID/g
Biodistribution, Skin ([3]; 2880 min): 0.00 % ID/g
Biodistribution, Spleen ([3]; 2880 min): 0.00 % ID/g
Biodistribution, Tumor ([3]; 2880 min): 0.61 % ID/g
